# Several values for one entry are separate records, joined by “and”; a condition that tells them apart may be missing. Equal values may be shown once.
# Target: Trypanosoma evansi mevalonate kinase (TeMVK), N-terminal 6xHis-tagged recombinant (Trypanosoma evansi)
# Experiment: SEC; Superdex 200 16/600, 30 mM glycine pH 9.0, 150 mM NaCl; TeMVK expressed in autoinduction medium ZYM5052; sizes estimated from calibration with gel filtration standard
substance,measurement,value
"Trypanosoma evansi mevalonate kinase (TeMVK), N-terminal 6xHis-tagged recombinant (enzyme)",stoichiometry N,2 and 4

# — paper PMC6048237
